Measurements from publication PMC5882232.

Target: TRPA1b-FLAG (mouse TRPA1b, splice variant of TRPA1 lacking exon 20, tagged with FLAG) (mouse)
Assay: native gel or EMSA

stoichiometry N: 4
Substance: TRPA1b-FLAG (mouse TRPA1b, splice variant of TRPA1 lacking exon 20, tagged with FLAG) (natural protein)
